One series addresses T1, JASPer (Drosophila melanogaster, UniProt Q9VAA9 1-475).
T1 sequence: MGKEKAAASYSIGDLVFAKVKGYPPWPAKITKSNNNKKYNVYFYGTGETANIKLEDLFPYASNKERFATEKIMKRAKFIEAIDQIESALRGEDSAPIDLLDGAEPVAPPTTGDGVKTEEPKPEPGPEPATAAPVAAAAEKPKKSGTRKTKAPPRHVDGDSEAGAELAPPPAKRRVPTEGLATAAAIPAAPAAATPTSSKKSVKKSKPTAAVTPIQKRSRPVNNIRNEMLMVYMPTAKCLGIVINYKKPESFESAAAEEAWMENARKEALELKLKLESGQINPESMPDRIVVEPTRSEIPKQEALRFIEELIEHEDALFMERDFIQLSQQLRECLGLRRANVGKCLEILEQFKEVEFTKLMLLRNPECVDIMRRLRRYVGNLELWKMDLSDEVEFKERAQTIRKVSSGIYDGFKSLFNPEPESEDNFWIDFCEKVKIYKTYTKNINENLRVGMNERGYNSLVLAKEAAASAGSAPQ
The series can be described thus: EMSA; 70 nM DNA; 9-fold molar excess of JASPer shifts all DNA; at least three retarded bands; DNA EMSA: 50 mM HEPES pH 7.6, 50 mM NaCl, 10% glycerol, 2 mM MgCl2, 10% BSA, RT 10 min; RNA EMSA: 25 mM HEPES pH 7.6, 100 mM KCl, 3 mM MgCl2, 1 mM DTT, 5% glycerol, 100 ug/mL yeast tRNA, 20 C 15 min; nucleosome pull-down: 20 mM Tris/Cl pH 7.5, 50 mM NaCl, 5 mM EDTA, 0.1% Tween 20, 4 C 4 h. The settings on record: protein: recombinant; tags: C-terminal FLAG; label: Cy5; blunt.

The next series addresses T2, JIL-1 (Drosophila melanogaster, UniProt Q9V3I5 1-1207).
T2 sequence: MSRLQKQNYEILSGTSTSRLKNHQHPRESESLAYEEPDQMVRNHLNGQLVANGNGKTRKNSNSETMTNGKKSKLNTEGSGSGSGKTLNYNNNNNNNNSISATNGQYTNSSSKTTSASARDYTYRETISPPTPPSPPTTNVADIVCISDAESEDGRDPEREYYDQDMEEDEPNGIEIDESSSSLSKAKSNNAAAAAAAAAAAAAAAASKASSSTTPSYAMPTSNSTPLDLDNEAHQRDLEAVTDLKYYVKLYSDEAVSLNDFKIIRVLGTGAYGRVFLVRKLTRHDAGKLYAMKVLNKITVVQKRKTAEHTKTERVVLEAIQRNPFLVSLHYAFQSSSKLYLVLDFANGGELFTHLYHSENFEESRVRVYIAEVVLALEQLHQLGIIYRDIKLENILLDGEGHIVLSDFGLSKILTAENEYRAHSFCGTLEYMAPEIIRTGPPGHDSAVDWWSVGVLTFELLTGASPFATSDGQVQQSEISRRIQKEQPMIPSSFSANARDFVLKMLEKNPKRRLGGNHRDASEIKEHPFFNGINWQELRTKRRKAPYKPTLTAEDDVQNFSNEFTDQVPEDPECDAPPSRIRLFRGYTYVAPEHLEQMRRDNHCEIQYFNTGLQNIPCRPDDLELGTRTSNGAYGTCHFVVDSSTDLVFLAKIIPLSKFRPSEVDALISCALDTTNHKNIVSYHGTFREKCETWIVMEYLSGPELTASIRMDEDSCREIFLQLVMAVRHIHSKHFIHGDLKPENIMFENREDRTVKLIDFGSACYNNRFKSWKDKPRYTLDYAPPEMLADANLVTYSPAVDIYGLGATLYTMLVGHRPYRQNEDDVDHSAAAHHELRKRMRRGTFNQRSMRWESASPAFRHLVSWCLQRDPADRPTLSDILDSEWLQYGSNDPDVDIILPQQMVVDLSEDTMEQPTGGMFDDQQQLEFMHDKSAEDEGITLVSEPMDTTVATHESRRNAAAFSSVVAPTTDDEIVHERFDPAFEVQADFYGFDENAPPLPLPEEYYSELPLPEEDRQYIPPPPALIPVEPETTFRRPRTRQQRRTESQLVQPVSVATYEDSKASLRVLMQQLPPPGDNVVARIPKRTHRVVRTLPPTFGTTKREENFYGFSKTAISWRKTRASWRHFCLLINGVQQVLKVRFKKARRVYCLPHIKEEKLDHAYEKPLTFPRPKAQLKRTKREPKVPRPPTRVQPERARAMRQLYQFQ
The series can be described thus: EMSA; 70 nM DNA; DNA EMSA: 50 mM HEPES pH 7.6, 50 mM NaCl, 10% glycerol, 2 mM MgCl2, 10% BSA, RT 10 min; RNA EMSA: 25 mM HEPES pH 7.6, 100 mM KCl, 3 mM MgCl2, 1 mM DTT, 5% glycerol, 100 ug/mL yeast tRNA, 20 C 15 min; nucleosome pull-down: 20 mM Tris/Cl pH 7.5, 50 mM NaCl, 5 mM EDTA, 0.1% Tween 20, 4 C 4 h. The conditions noted are these: protein: recombinant; tags: N-terminal FLAG; label: Cy5; blunt.

B1: 40 bp dsDNA (end of 601 positioning sequence) (dsDNA)
DNA 1: CCTGGAGAATCCCGGTGCCGAGGCCGCTCAATTGGTCGTA
DNA 2: TACGACCAATTGAGCGGCCTCGGCACCGGGATTCTCCAGG
Turning to B1, the values for the binding result in the series with JASPer and in the series with JIL-1 were “binds” and “no binding”, respectively.

Values taken from publication PMC6877644, “JASPer controls interphase histone H3S10 phosphorylation by chromosomal kinase JIL-1 in Drosophila”.
